Measured values reported in a protein production outcome set (Wang et al. 2014).

Test: label from the status in PepcDB records

Row | Sequence | protein production
1 | MERLNSKLFVENCYIMKENERLRKKAELLNQENQQLLFQLKQKLSKTKNSNNGSNNDNKSSSASGQS | failed
2 | MNPGKGPVLRFRVQLLVVGFALALGAAHQAQAAPGRALYKLPDLRVGLGDDNQGDTIPGPTRPNGSIHPSPDTLKASNAGYNPAEPISGFAQLHSQGSGGVTTYGTFLLSPQVGEPVFDEAAHLSPKADETLAADAYSVRLTRYDTKVEITSAHYAAIYRLTYPTTDQAQVVLDVTRKVGGLVASEQADVQLFPEQGRIVGHVKAKGYWNPALIDIWFVAEFDQNPTAWGVFDKAERRDGALSGRTGSDERLGAWLTFKTTPTKPLLVKIAVSFVSAEMAKALLDREIPDWDFERVRRDTQAAWNDRLGQVRVEGMTESQQRRFYSALYHASTHPRDRSLDQPAARLGRPNWDEHYTLWDTYRTLFPLISVLRPSLYTANVNSLIHTFDKFGAADTAIIGGQNYHVGQGGDEVDNVLGEALLRGAEGVNWRDAWRVARFNAFERRRPRYLESGYFAVGDRSPEPNNQRAKSGSSTLGFALNDFYAAQVAAKAGQTDEAKILTERSANWRKIWNPDATSDGFSGFLMPRYADGKFQDIDPKLGWDGKVHNNVGYYEGTAWIYSYGVLHDLPGLVEAMGGRVRFNERLNHALDAGLIDITNEPSFATPWLFHAIGRADLSSRWAGEVVKHFTADAYPGDEDAGAMSSNFVFNSLGLFPKLGSDLYYLHGPRHGRTVIQLENGKTLEILAAKAGASRPYIASASFNGKPLAGPYVSQAQLLGGGVLSLSMSDQPGQWIYEGAVLTVRADQPSLVDGKTSTGWRAASGQSVTFSLKAPACIAAYSVSVGPDQADPSHWTLQAYDGRAWVSVDQQSNVVFDHRHATRTFPLAPGRYARLRWVLDGGSEASVSEVELIAGASCAAPTSGAPLL | failed
3 | MKEGTGMVVRSSEITPERISNMRGGKGEVEMAHLLSKEAMHNKARLFARMKLPPGSSVGLHKHEGEFEIYYILLGEGVFHDNGKDVPIKAGDVCFTDSGESHSIENTGNTDLEFLAVIILL | not failed
4 | MKITMRVSVPLSPRQAASQPVPSHRCLHVWPFIRPSLLRPELTMPSGCRCLNLVCLLCILGATSQPARADDCSSHCDLAHGCCAPDGSCRCDPGWEGLHCERCVRMPGCQHGTCHQPWQCICHSGWAGKFCDKDEHICTSQSPCQNGGQCVYDGGGEYHCVCLPGFHGRGCERKAGPCEQAGFPCRNGGQCQDNQGFALNFTCRCLAGFMGAHCEVNVDDCLMRPCANGATCIDGINRFSCLCPEGFAGRFCTINLDDCASRPCQRGARCRDRVHDFDCLCPSGYGGKTCELVLPAPEPASVGTPQMPTSAVVVPATGPAPHSAGAGLLRISVKEVVRRQESGLGESSLVALVVFGSLTAALVLATVLLTLRAWRRGICPTGPCCYPAPHYAPARQDQECQVSMLPAGFPLSPDLPPEPGKTTAL | failed
5 | MDNSGKEAEAMALLAEAERKVKNSQSFFSGLFGGSSKIEEACEIYARAANMFKMAKNWSAAGNAFCQAAQLHLQLQSKHDAATCFVDAGNAFKKADPQEAINCLMRAIEIYTDMGRFTIAAKHHISIAEIYETELVDIEKAIAHYEQSADYYKGEESNSSANKCLLKVAGYAALLEQYQKAIDIYEQVGTNAMDSPLLKYSAKDYFFKAALCHFCIDMLNAKLAVQKYEELFPAFSDSRECKLMKKLLEAHEEQNVDSYTESVKEYDSISRLDQWLTTMLLRIKKTIQGDEEDLR | not failed
6 | MKGNSFGEIISSEDIGLRKGADSSHEIITSIPSGARVNIIDKMSKDWYKVSYKDFTGYLQAKDIRVLGLEHHHHHH | failed
7 | MKSYMTQRLDEYRDGNEDKGRLLVSCPDQPGIVSAVSAFLFEHGANIIESNQYTTDPEGGRFFLRIEFDCAGIREKKSSLQAAFASVAEKFDMTWSLTLASELKRVAIFVSKNLHCLHELIWEWQTGNLMAEIAVVISNHEEARELVERLNIPFHYMKANKDIRAEVEKKQLELLEQYDVDVIVLARYMQILTPDFVSAHPNRIINIHHSFLPAFIGANPYKRAYERGVKLIGATSHYVTNDLDEGPIIEQDIKRVDHRDNAETLKNIGRTIERSVLARAVKWHLEDRVIVHENK | not failed
8 | MATSMTDIKGFNMISIEQEKELGNKFAVEIEKQQQPVNDPEVQRYVDKVGKRLLSGARAVEFDYVFKVVKDDSVNAFAIPGGRVYVHTGLLKAADNETELAGVLAHEINHAVARHGTRQMTQEYGYSLVLSLVLGDNPNMLAQLAGQLFGKAGMMSYSREYENQADFLGVETMYKAGYNPNGLTSFFQKLNAMDGGTQSNVARFFSTHPLTSERIQRVQAEIAKLPPQRYLTDETEFKKIKGRLKLEHHHHHH | not failed
9 | MVAVWSAVAALLGVLINNSLSLVIKDYTVQEWRLGIAGYNGAIVGMYWGDSIFSIMGLCLFLVTLLICLLIEFRLRALLIPKQLPILSLPAMVSILVMVFTISLFSFDTNHLLFTGAAEPVLQTYSREVAIILVVSAMAYQYPLATLQTLGISLTGGLVAQWLTGLNLYALVDLWAINLVLAYFSIKTLFLKHARLASLAATFNALLAWIIWYFWFITGLEQLSAPLLIPFIMSSLITLSLYRQYINHNLLQSELWRTFKLMLINRLRAKQCVAITGSGIRKGTLPDYPSGQWLDPKVPITSYTLAEFKASKRCRYLYWKASYDYYQQALTINKNNIDEQLDYLLNHYLSGLFTETVDSLFNTEQHPVYECYGSIKRLYCLDCAKQQAWPPIPLWSQRDLHCQHCSGLLKPQILAADENIDSECYQALQKNMMECGCLLVIGVPTITPVVSMIIENANANKIPIIFIGTIPFGYFVEEKDVQLTGDIAHWLAEINGFINLLHPLKWGCKWKK | failed
10 | MRILSIHLKNIKSHRDTELTFSAGINVLSGPNGVGKSTVFEAIGYALFGVDARDFVSNVDRFLSIGTKKGEIAVAFCTDAGETWRVTRTVGTPAKWLLAREQGGAFEVEEHARIEETEARIAELLGLDNGRPLAEQFKLVIGPFQNEFLGPFVIKQPTKRQEAFDEILGIDAWRKTYKSTSSLLSAVQEKIKIIAVEIEAKEAQVAVLPEREDELAKIKTDAEALRKVLSSQADALRDVEKQLVELDDQEKGIAALQAEIQILVNRITDGEGKIKDQGQRVGEAEKAGGVLEQTRAGKEAFERAESRLAELVSKDKQRREVEKDVTRLENETQRLTQAVEHEQKEIEGEGRRLREEEDALAKARNELEPDRKVVDTAGRLPGLRDEINRVRSEKGLLEGRRIGLLEGQEKLGEGTCPFFKEPCRNVAGTTPKDVFTTRIAELDRKMQALTEALGKLSVEVADAEAAEKQLAALTVRSQELHKQTMGLVERRARNEKRVATLQTLSTQQIEAATRAKARRDDLQVFAGLDHEIERATAERGRFQADRDAYHAHEKDALDLDNRRQTLEKMLRLLDELQKQLIGKKEELIRLQETYKPGQHKEARDQKDRLVAQVASLGQQIENLEKDRKRLEDEIGKLKLLKDEIGRKQAERNSFEQKEKLVKFLRNQVFKNVSAQLSERFREEISLRADRIYRTIAEADEELVWSENYQIVLRDMTDGVVRERSDDQLSGGQTMSAVVALRLALLQTIGARIAFFDEPTSNLDASRRENLATAFRAIDVGREEVTEHWYDQLFLISHDVAFTEITDQMIQLGE | failed
11 | MERPVPVRVEPRQLALDLPHAESLSREDFLEGSANTAALSLIESWPDWPNRIMMLVGPEGSGKSHLAAIWAELAGARSTAAQALNAAAVPGALATGAVVVEDLVPGSFDERALFHLMNMAREDEAYVLFTGRVEPSALSIELRDLKSRLRTVPVVSLLPPDDALFRALIVKFCADRQMCIDAALVGYLANRIDRSFVAARQVVEKLDTTALRLGRPVTRALASEVLRADLEHHHHHH | failed
12 | MTTETFLVEIGTEELPPKALRSLAESFATHFTAELDNANITHGDVSWFAAPRRLAIKVANMAKSQADRIVEKRGPAIAQAFDAEGKPTKAAEGWARGNGITVDQAERLSTDKGEWLFYRAEVKGEAVNQLLAGMVSNALAKLPIPKLMRWGDKETHFVRPVHTVTLLLGDTLIDGEILGVQSARIIRGHRFMGEAEFTIDNADQYPEILYERGKVIADYENRKSIILHDARLAAEKLGGVADLSDSLVEEVTSLVEWPVVLTAKFEEKFLEVPAEALVYTMKGDQKYFPVYDKQGALLPHFIFVSNIESSDPQQIISGNEKVVRPRLADAEFFFKTDRKQRLEDNLPRLETVLFQKNLGSLRDKTDRIQALAGFIAEKMGADVNKATRAGLLSKCDLMTNMVFEFTDTQGVMGMHYARHDGEDEEVAVALKEQYQPRFAGDALPSNPVASAVAIAEKMDTLAGIFGIGQHPKGDKDPFALRRAALGVLRIIVEQDLPLDIEELTQEAARLYGDKLTNQNVVSDVVEFMLGRFRAWYQELGYSIDTIQAVLARRPTQPADFNARVKAVTYFRTLEEAAALAEANKRVSNILAKSADVKLNDKVLASVLKAPEEVQLAANLSVLQDKLAPLFAERKYQEALVELASLRDVVNNFFDKVMVMDKDEEIRVNRLTMLHELRELFLKVADISVLQ | failed
13 | YQEPKGELVISAPTMFGRQHVLPVISEFIARYPLIRVRLLLSDRNADLVSDHVDLAVRIGDLADSSMVATRLGTMRIVACAHPALLAKYGEPQRPRDLAALPIIRIESPMPYRGWRFRAAEREDQLINLPPVLSVTTPESA | failed
14 | MERHVPEPTHTLEGWHVLHDFRLLDFARWFSAPLEAREDAWEELKGLVREWRELEEAGQGSYGIYQVVGHKADLLFLNLRPGLDPLLEAEARLSRSAFARYLGRSYSFYSVVELGSQEKPLDPESPYVKPRLTPRVPKSGYVCFYPMNKRRQGQDNWYMLPAKERASLMKAHGETGRKYQGKVMQVISGAQGLDDWEWGVDLFSEDPVQFKKIVYEMRFDEVSARYGEFGPFFVGKYLDEEALRAFLGL | not failed
15 | MELFTLGACRQVGKSCFVLKTSEGLVMLDCGLHPSYQDDRRYPNFSLAFSYGPLKAVFITHCHADHVGALPILTERWGYDGPIYMSEPTRKLSYYILEECVGSWGGDDEWTDSSRSEWSYTQREVESCLTKVTIMEPGQSISVGENVQVHSWMAGHVLGAYMFSIVVDNHRILYTGDFTSCPTFHLPPARVDDIPYPPDVILSEATYATSFKDGRLNNQVEFIQNVLDCLLDGGKVLVPVFAIGRAQELLLLLGK | not failed
16 | MNMNHYRPVILADQRVVSDFELDPLTRKISIKILQGHEQGNKGMVDTLRQNLQQRLGVPVEIPLALMNHLVKLVRDGNEVITATLAAGNDINEDGKAASYQVIDAEPGDHTGVQVGLAIDIGTTTVVVYLVNMVNGDIIAKASDYNGQIKLGDDILSRIMAAREEKGLQELQALIVNTLNALIQQLCLEAELKPQAITGVCIGANTTMVHLCLGLDPGSICRAPYRPAVNNAGIFCAGEIGLAVHPLAPTYCLPSIGSYIGGDVLAGILVSGMHKQEEVALLADIGTNGEFILGNQEWLVGCAGAAGPALEGGVTEWGIRAEQGAVDQVSIDSEHHVGYTTIDNAPARGICGSGLIDSLAELFLNGLINRAARFTDGRERFTIVPADESATGKEIFISQKDINSLMRTKGAVNAALEVLMESVGCQWEEIAKFYAAGAFGQYLPIESAVTIGLYPDLPREQMLRLGNSSGEGARQVLLSNSKRQEIEEIAGKITYFEMNASSSFMDKYGGSRFLPHTNMDLFPSVQEKLAVRQRSRC | failed
17 | MRDILKKELILLGILISISFAGCVDQNPEEYYSKGILQYDDGNYTESIDLFEKAIQLNPEESKYWLMKGKALYNLERYEEAVDCYNYVINVIEDEYNKDVWAAKADALRHIEGKEVEAEIAEARAK | failed
18 | MPHPFVYHDCPMSRLLFRYICTETAVPFALGLTVFTFVLLMGRLLKLAEMVFARGVPFLDVTRLILYMLPSFFLVAIPMAFLLAVLLAMGRLSADSEVTAMKASGMSIGTIAVPVIAFGVITYAATTFVSVYALPWGNTAFKKFLHGVIETRAAMSITEKVFNDEFPGLVIYVDGFDPKSGRISGILIHDERNPDEPSTIFAASGQLATNPEERIVRLRLNNGGIHRGIGTGGYRLVEFTSYDLSIALQREQQKARLNEEDMTLGELLARMKSPGEQPKLVREMHFELHKRFALPFACVVFAVIAVPLGIQNQRSGRAGGFAAGIILLMLYYILMSAGKTVNEKGIAPAFVAVWIPNVLFLGLGIFLLKRAALDRAIPLAEYVTTALAWVRHRFERRKT | failed
